Target: T1, CT1-SLC (LTBP1-CT region disulphide bonded to the TGFβ1 small latent complex) (UniProt Q14766 1347-1721; P01137 30-390, disulphide bonded to the SLC)
T1 construct: TGFβ1 small latent complex (proTGFβ1: prodomain LAP and growth factor); also called LTBP1-SLC; truncated version of the LLC; source: HEK293T, co-expressed from pBUD4.1, purified from serum free media (Anti-Flag M2 resin, SEC); not shown: Twin-Strep (chain inferred)
Assay: BLI; OctetRED96; biotinylated CT1-SLC on streptavidin biosensors, PF3 100-6.25 nM; 10 mM HEPES, 150 NaCl, pH 7.4, 0.005% Tween-20, 25 °C; 1:1 Langmuir fit
Settings: both partners purified

T1 sequence (Q14766 1347-1721, chain 1 of 2): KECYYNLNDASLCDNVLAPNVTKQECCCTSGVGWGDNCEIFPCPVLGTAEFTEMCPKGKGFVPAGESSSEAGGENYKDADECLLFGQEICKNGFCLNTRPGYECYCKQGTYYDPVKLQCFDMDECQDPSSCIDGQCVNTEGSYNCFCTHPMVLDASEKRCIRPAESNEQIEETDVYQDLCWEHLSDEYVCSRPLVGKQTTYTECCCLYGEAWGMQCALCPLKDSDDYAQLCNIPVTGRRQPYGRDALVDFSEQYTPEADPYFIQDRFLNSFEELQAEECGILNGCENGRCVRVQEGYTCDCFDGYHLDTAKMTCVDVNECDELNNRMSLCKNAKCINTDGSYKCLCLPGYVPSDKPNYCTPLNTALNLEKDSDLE
T1 sequence (P01137 30-390, chain 2 of 2): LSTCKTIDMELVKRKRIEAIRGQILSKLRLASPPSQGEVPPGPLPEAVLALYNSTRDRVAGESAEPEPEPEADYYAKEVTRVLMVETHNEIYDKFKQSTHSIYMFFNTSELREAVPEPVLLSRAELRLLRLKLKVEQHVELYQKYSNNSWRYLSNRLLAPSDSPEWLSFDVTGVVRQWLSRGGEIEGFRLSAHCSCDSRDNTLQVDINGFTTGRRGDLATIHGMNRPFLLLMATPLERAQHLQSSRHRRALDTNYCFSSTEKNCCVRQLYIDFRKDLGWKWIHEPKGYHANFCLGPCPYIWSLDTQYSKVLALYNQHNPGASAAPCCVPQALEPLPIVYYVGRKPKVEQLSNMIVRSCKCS

Kd: ~6 nM
B1: fibrillin-1 N-terminal region PF3 (domain or fragment)
chain: not shown
notes: fibrillin-1, N-terminal region called PF3; P35555-1 is printed for the AlphaFold input (115-287); PF1 and PF2 are two over-lapping constructs within this region; not verified; also called fibrillin1-PF3; fibrillin PF3 fragment
